# Experimental data: article PMC12002313 (Proceedings of the National Academy of Sciences of the …, 2025)
# B1: hu1B7mut IgG (hu1B7 HC S56A, Q61A, Q64A) (antibody, V domains shown)
# VH: QVQLVQSGAEVKKPGASVKVSCKASGYKFTSYWMHWVRQAPGQGLEWIGNIFPGSGATNYAAKFAGRVTLTVDTSTSTAYMELSSLRSEDTAVYYCTRWLSGAYFDYWGQGTTVTVSS
# VL: QIVLTQSPATLSVSPGERVTLTCSASSSVSFMYWYQQKPGRAPKPLIYLTSNLPSGVPARFSGSGSGTSYTLTINSLEAEDAATYYCQQWSSHPPTFGSGTKLEIK
# B2: hu1B7 IgG (antibody, V domains shown)
# VH: QVQLVQSGAEVKKPGASVKVSCKASGYKFTSYWMHWVRQAPGQGLEWIGNIFPGSGSTNYAQKFQGRVTLTVDTSTSTAYMELSSLRSEDTAVYYCTRWLSGAYFDYWGQGTTVTVSS
# VL: QIVLTQSPATLSVSPGERVTLTCSASSSVSFMYWYQQKPGRAPKPLIYLTSNLPSGVPARFSGSGSGTSYTLTINSLEAEDAATYYCQQWSSHPPTFGSGTKLEIK
# B3: hu11E6 Fab (Fab, V domains shown)
# VH: EVQVVESGGGLVQPGRSLRLSCTTSGFTFTDYYVSWVRQAPGKALEWLGFIRNKVNGYTTEFSSSVKGRFTISRDNSKSILYLQMNSLKIEDTAVYYCARVSYYGRGWYFDYWGQGTTLTVSS
# VL: DIVMTQSPSSLSASVGDRVTISCRASQDIDNYLSWFQQKPGGTVKLLIYYTSRLHSGVPSRFSGSGSGTDYTLTISSLQPEDIATYFCQQGNTFPWTFGGGTKLEIK
# B4: hu1B7 Fab (Fab, V domains shown)
# VH: QVQLVQSGAEVKKPGASVKVSCKASGYKFTSYWMHWVRQAPGQGLEWIGNIFPGSGSTNYAQKFQGRVTLTVDTSTSTAYMELSSLRSEDTAVYYCTRWLSGAYFDYWGQGTTVTVSS
# VL: QIVLTQSPATLSVSPGERVTLTCSASSSVSFMYWYQQKPGRAPKPLIYLTSNLPSGVPARFSGSGSGTSYTLTINSLEAEDAATYYCQQWSSHPPTFGSGTKLEIK
# Key:
# [1] = target: PTg (genetically detoxified pertussis toxin) (Bordetella pertussis, UniProt P04978+P04979); type: binding
# [2] = target: pertussis toxin (PT), enzymatically active holotoxin (Bordetella pertussis, strain of bought …, UniProt P04977;P04978;P04979;P0A3R5;P04981); assay: ELISA
# [3] = target: pertussis toxin S3 subunit, as it stands in PTg (Bordetella pertussis, UniProt P04979); assay: cryo-EM structure
# [4] = target: pertussis toxin S2 subunit, as it stands in PTg (Bordetella pertussis, UniProt P04978); assay: cryo-EM structure
# [5] = target: pertussis toxin S5 subunit, as it stands in PTg (Bordetella pertussis, UniProt P04981); assay: cryo-EM structure
molecule,measurement,setting,value
"CC(=O)N[C@H]1[C@H]([C@H](O)[C@H](O)CO)O[C@@](O[C@H]2[C@@H](O)[C@@H](CO)O[C@@H](O[C@H]3[C@H](O[C@@H]4O[C@@H](C)[C@@H](O)[C@@H](O)[C@@H]4O)[C@@H](NC(C)=O)C(O)O[C@@H]3CO)[C@@H]2O)(C(=O)O)C[C@@H]1O (stereo partly drawn) [sialyl Lewis^X blood group antigen, Neu5Acα2-3Galβ1-4(Fucα1-3)GlcNAc]",RFU,[1],"PTg alone binds to sialylated N-glycans, asialo-N-glycans, and other carbohydrates (such as the sialyl Lewis^X"
B1,binding result,[2],binds
B2,binding result,[2],binds
B3,binding result,[3],binds
same,binding result,[4],binds
B4,binding result,[5],binds
